Experiments:
Assay in all cases: far-Western, overlay or dot blot; purified GST-fused peptides resolved by SDS-PAGE, transferred to PVDF membranes and probed with biotin-labeled ALG-2; chemiluminescence, quantified with ImageJ
[1] = biological target: GST-8 aa-fusion of CHERP
[2] = biological target: GST-8 aa-fusion of RBM22
[3] = biological target: GST-8 aa-fusion of SET1B
[4] = biological target: substitution of Pro with Ala at position 2, 4 or 5 (P2A, P4A or P5A) or substitution of Pro5 with Leu (P5L)

Sequence of biotin-labeled ALG-2 (O75340 whole entry): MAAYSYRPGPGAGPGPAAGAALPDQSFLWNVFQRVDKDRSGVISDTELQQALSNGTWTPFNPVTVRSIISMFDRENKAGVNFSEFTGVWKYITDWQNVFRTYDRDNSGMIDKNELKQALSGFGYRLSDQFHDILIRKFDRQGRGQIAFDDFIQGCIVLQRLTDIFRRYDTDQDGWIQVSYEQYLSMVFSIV

FW signal relative to that for Sec31A (of the signal for Sec31A) [1]: < 0.0625 | FW signal relative to that for Sec31A (of the signal for Sec31A) [2]: < 0.0625 | FW signal relative to that for Sec31A (of the signal for Sec31A) [3]: < 0.0625 | relative binding activity (percent of WT) [4]: 40 to 75 % of WT
Substance: biotin-labeled ALG-2 (from UniProt O75340 1-191) (natural protein)

— publication PMC4346919
